Assay results: the supplement of paper PMC7877785
± gives the uncertainty stated by the source.

Assay: self-splicing fitness, log relative to wild type (ln ratio); higher = more splicing; Tetrahymena group I intron in knt gene, E. coli kanamycin selection, DiMSum; sequences stand for … in CUCUCU…GGAGGGAAAAGUUAUCAGGCAUGCACCUGGUAGCUAGUCUUUAAACCAAUAGAUUGCAUCGGUUUAAAAGGCAAGACCGUCAAAUUGCGGGAAAGGGGUCAACAGCCGUUCAGUACCAAGUCUCAGGGGAAACUUUGAGAUGGCCUUGCAAAGGGUAUGGUAAUAAGCUGACGGACAUGGUCCUAACCACGCAGCCAAGUCCUAAGUCAACAGAUCUUCUGUUGAUAUGGAUGCAGUUCACAGACUAAAUGUCGGUCGGGGAAGAUGUAUUCUUCUCAUAAGAUAUAGUCGGACCUCUCCUUAAUGGGAGCUAGCGGAUGAAGUGAUGCAACACUGGAGCCGCUGGGAACUAAUUUGUAUGCGAAAGUAUAUUGAUUAGUUUUGGAGUACUCGUGGUCG
Summary of the method: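 Six replicate transformations of E. coli BL21(DE3) with a pET-22b(+) library were grown overnight at 37°C or 30°C. The library randomised all eight P1ex-region intron nucleotides, the intron lying in the knt kanamycin-resistance gene, and plates were LB agar with or without 25 μg/mL kanamycin plus 100 μg/mL carbenicillin, 50 μM IPTG and 0.2% rhamnose. Pooled colonies were amplicon-sequenced on an Illumina HiSeq 2500, and fitness is the DiMSum error-weighted combination of wild-type-normalised replicate fold changes, kanamycin versus none.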

Sequence	self-splicing fitness (ln) (30 °C)	self-splicing fitness (ln) (37 °C)
UCAGAGCAAUAUUACGGCUA	-2.46 ± 0.28	-2.11 ± 0.24
UUUGAGCAAUAUUACGACUU	-3.13 ± 0.34	-2.28 ± 0.37
GGUUAGCAAUAUUACGUUAU	-1.61 ± 0.1	-0.954 ± 0.1
CAAUAGCAAUAUUACGUCGG	-0.177 ± 0.069	0.202 ± 0.083
ACUCAGCAAUAUUACGAGAA	-1.51 ± 0.21	-0.586 ± 0.2
UUUUAGCAAUAUUACGGGUG	-1.65 ± 0.11	-0.739 ± 0.14
CUCGAGCAAUAUUACGUGUC	–	-2.76 ± 0.27
AACAAGCAAUAUUACGUUUU	-3.22 ± 0.08	-1.03 ± 0.067
ACACAGCAAUAUUACGACAU	-0.676 ± 0.01	-0.0836 ± 0.031
CUGGAGCAAUAUUACGGGAU	-4.01 ± 0.37	-1.91 ± 0.28
GCACAGCAAUAUUACGAGAU	-1.99 ± 0.088	-0.678 ± 0.081
CCUGAGCAAUAUUACGGGAG	-4.51 ± 0.27	-2.65 ± 0.2
ACACAGCAAUAUUACGAGUC	-5.36 ± 0.27	-3.05 ± 0.19
UGGCAGCAAUAUUACGGGGU	-3.97 ± 0.13	-2.62 ± 0.14
CACAAGCAAUAUUACGACCG	0.562 ± 0.17	0.582 ± 0.2
UUGUAGCAAUAUUACGCCGC	–	-2.68 ± 0.4
ACGGAGCAAUAUUACGUUUU	–	-3.08 ± 0.2
CUAUAGCAAUAUUACGCGGC	-1.25 ± 0.26	0.45 ± 0.25
UCGGAGCAAUAUUACGGUUG	-3.25 ± 0.24	-2.48 ± 0.33
CGCCAGCAAUAUUACGUCGG	-3.04 ± 0.21	-1.91 ± 0.21
GGUGAGCAAUAUUACGCACA	-1.07 ± 0.15	-0.679 ± 0.17
CAACAGCAAUAUUACGUGAG	-0.531 ± 0.049	-0.233 ± 0.07
AUACAGCAAUAUUACGCCAG	-1.79 ± 0.14	-2.03 ± 0.2
AGAGAGCAAUAUUACGUUAA	-3.32 ± 0.25	-2.36 ± 0.24
GUUAAGCAAUAUUACGCGGU	-3.3 ± 0.22	-2.65 ± 0.2
CUUCAGCAAUAUUACGAUGA	-4.12 ± 0.42	-1.71 ± 0.25

Sequence	self-splicing fitness (ln) (30 °C)	self-splicing fitness (ln) (37 °C)
CUAAAGCAAUAUUACGCACA	-2.11 ± 0.16	-2.11 ± 0.27
AGAAAGCAAUAUUACGACCC	0.302 ± 0.21	-0.444 ± 0.27
GUAAAGCAAUAUUACGUGUU	-2.69 ± 0.098	-0.867 ± 0.11
ACGAAGCAAUAUUACGCCGA	-0.564 ± 0.086	-0.414 ± 0.1
CAAAAGCAAUAUUACGUUUU	-3.57 ± 0.12	-2.79 ± 0.16
CAAUAGCAAUAUUACGGCGG	0.429 ± 0.11	-0.0335 ± 0.14
AUCUAGCAAUAUUACGCAAG	-1.46 ± 0.17	-1.29 ± 0.18
ACCCAGCAAUAUUACGAAUG	-3.41 ± 0.13	-1.2 ± 0.13
CAAGAGCAAUAUUACGUCUG	-1.45 ± 0.15	-0.511 ± 0.16
GUUUAGCAAUAUUACGAAGG	-2.93 ± 0.38	-1.37 ± 0.26
UUUUAGCAAUAUUACGUUGG	-2.07 ± 0.21	-2.23 ± 0.32
UGUCAGCAAUAUUACGUGCC	-0.825 ± 0.12	-0.182 ± 0.14
CCUCAGCAAUAUUACGUUGU	-4.98 ± 0.23	-2.52 ± 0.13
GAGCAGCAAUAUUACGAACG	-2.53 ± 0.18	-0.673 ± 0.16
CAGCAGCAAUAUUACGAUUC	-3.27 ± 0.25	-1.78 ± 0.16
GGCCAGCAAUAUUACGUCCG	-3.34 ± 0.21	-0.963 ± 0.14
GAGCAGCAAUAUUACGGUGC	-2.98 ± 0.18	-2.61 ± 0.18
CCAAAGCAAUAUUACGGAGC	-3.3 ± 0.15	-2.69 ± 0.19
GAUCAGCAAUAUUACGCGCG	-0.222 ± 0.14	0.0103 ± 0.15
GCAGAGCAAUAUUACGCGCU	–	-2.13 ± 0.35
AUUGAGCAAUAUUACGUGCG	-3.83 ± 0.24	-2.02 ± 0.16
GGUUAGCAAUAUUACGGGUC	-2.03 ± 0.24	-0.805 ± 0.18
AACGAGCAAUAUUACGAUGA	-3.91 ± 0.46	-2.08 ± 0.22
UCACAGCAAUAUUACGCUUU	-3.36 ± 0.15	-3.6 ± 0.27
GGACAGCAAUAUUACGUCGC	-3.12 ± 0.18	0.343 ± 0.15
GCAUAGCAAUAUUACGAGAU	-3.61 ± 0.46	-2.13 ± 0.33

Sequence	self-splicing fitness (ln) (30 °C)	self-splicing fitness (ln) (37 °C)
UGAGAGCAAUAUUACGUUGC	-2.35 ± 0.22	-1.06 ± 0.33
AAUCAGCAAUAUUACGACGG	-1.73 ± 0.097	-0.991 ± 0.13
UUGCAGCAAUAUUACGAAUG	-1.98 ± 0.086	-0.713 ± 0.1
GUGCAGCAAUAUUACGGAGC	-1.85 ± 0.2	-1.97 ± 0.19
CGUCAGCAAUAUUACGUAGG	-0.704 ± 0.055	0.23 ± 0.086
GGCAAGCAAUAUUACGCCGA	-2.14 ± 0.32	-0.337 ± 0.25
GUCCAGCAAUAUUACGUCUC	0.725 ± 0.087	-0.134 ± 0.087
GAGAAGCAAUAUUACGGGGU	-3.06 ± 0.2	-3.13 ± 0.28
CUCUAGCAAUAUUACGCGGC	-2.81 ± 0.3	-2.45 ± 0.3
CGACAGCAAUAUUACGCCCC	-1.19 ± 0.16	0.564 ± 0.24
GUUCAGCAAUAUUACGUCCG	0.0188 ± 0.43	–
GGCCAGCAAUAUUACGUUGG	-3.91 ± 0.25	-3.17 ± 0.25
UUGCAGCAAUAUUACGUUUG	-2.14 ± 0.14	-0.998 ± 0.14
ACAUAGCAAUAUUACGCCGC	–	-2.65 ± 0.4
GUCAAGCAAUAUUACGUUCU	-1.88 ± 0.07	-1.3 ± 0.087
ACGGAGCAAUAUUACGUAGU	-2.37 ± 0.11	-1.36 ± 0.12
AGAAAGCAAUAUUACGCUAA	-2.38 ± 0.34	-1.11 ± 0.4
UAUGAGCAAUAUUACGGAUG	-2.09 ± 0.12	-1.64 ± 0.17
AUAUAGCAAUAUUACGAUUA	-0.958 ± 0.23	-0.617 ± 0.2
UAGAAGCAAUAUUACGAUAG	-1.57 ± 0.15	-0.522 ± 0.15
CUAAAGCAAUAUUACGCACG	-0.0346 ± 0.092	0.511 ± 0.14
GAGCAGCAAUAUUACGGUCA	-0.942 ± 0.11	-0.118 ± 0.11
CCAUAGCAAUAUUACGUGCC	–	-2.41 ± 0.41
ACCUAGCAAUAUUACGGAGG	-2.4 ± 0.14	-2.16 ± 0.21
ACUCAGCAAUAUUACGUACG	-2.58 ± 0.14	-0.864 ± 0.11
AUUCAGCAAUAUUACGGUCA	-0.711 ± 0.12	-0.789 ± 0.11
